Results published in paper PMC6134028, “Mutant FUS causes DNA ligation defects to inhibit oxidative damage repair in Amyotrophic Lateral Sclerosis” (Nature Communications, 2018).
Each block holds one molecule with its values, some of them ahead of it.

Assays:
Flag-FUS-R521H (human) = Flag-FUS-R521H (human) (UniProt P35637); assay: proximity ligation; PLA of Flag vs XRCC1, LigIII or PARP-1 in GO-treated SH-SY5Y cells expressing Flag-tagged WT or R521H FUS
[1] = molecular target: XRCC1/LigIII complex, purified from insect cells (UniProt P18887 1-633; P49916 88-1009); assay: cell-based or functional assay
Sequence of XRCC1/LigIII complex, purified from insect cells (P18887 whole entry, chain 1 of 2): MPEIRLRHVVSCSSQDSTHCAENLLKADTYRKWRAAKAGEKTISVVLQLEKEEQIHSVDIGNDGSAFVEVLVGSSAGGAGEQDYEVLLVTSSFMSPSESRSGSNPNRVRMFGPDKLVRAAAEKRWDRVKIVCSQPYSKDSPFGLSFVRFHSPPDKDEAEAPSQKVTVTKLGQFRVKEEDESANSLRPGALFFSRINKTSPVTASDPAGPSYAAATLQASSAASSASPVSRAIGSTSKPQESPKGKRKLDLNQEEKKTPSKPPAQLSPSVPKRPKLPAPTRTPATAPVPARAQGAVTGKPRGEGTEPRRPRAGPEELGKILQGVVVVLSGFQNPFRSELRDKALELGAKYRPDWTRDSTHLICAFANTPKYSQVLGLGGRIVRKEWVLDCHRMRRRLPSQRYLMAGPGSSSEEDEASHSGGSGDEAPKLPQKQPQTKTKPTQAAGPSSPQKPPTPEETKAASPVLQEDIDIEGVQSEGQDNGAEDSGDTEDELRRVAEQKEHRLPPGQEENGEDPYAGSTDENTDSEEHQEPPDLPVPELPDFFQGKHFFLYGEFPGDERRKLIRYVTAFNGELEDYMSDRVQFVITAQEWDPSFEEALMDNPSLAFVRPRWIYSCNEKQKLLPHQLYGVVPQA
Sequence of XRCC1/LigIII complex, purified from insect cells (P49916 88-1009, chain 2 of 2): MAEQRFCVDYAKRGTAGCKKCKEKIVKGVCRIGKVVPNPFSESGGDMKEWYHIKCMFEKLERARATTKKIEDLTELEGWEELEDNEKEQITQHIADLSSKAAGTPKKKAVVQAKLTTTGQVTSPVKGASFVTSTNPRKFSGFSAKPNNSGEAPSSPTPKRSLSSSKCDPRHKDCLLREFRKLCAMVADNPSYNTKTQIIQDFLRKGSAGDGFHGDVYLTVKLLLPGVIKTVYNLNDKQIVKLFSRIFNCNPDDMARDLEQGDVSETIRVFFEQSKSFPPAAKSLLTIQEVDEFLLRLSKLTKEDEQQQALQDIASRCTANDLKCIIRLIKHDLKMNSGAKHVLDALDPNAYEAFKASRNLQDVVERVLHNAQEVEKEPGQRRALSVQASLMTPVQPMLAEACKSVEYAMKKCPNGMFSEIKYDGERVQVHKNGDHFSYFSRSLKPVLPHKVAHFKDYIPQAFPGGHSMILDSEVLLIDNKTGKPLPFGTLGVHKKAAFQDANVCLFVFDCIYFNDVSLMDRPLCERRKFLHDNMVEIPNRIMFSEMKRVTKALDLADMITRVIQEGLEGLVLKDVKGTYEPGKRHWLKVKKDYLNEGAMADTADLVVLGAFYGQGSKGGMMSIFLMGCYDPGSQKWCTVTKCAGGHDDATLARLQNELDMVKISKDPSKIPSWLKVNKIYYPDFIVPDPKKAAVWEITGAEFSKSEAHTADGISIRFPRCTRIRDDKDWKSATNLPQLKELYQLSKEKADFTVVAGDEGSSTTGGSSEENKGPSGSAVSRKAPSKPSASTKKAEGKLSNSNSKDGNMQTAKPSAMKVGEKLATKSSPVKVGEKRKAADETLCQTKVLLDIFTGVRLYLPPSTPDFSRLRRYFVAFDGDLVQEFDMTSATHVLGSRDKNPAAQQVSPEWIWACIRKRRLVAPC

[2] = molecular target: T1, PARP-1, His-tag protein, purified (human, UniProt P09874 1-1014); assay: pull-down; GST-FUS with the partner at 4 C overnight on glutathione affinity gel, washed three times with TEN buffer (20 mM Tris-HCl pH 7.4, 0.1 mM EDTA, 100 mM NaCl), immunoblot; for XRCC1 also in the presence of PARP-1 and NAD+ (PARylation enhanced the interaction); details: both partners purified
T1 construct: human PARP1, recombinant; also called human PARP1 purified protein; source: expressed as His-tag protein, purified (Ni-agarose column, cation exchange)
T1 sequence (P09874 whole entry): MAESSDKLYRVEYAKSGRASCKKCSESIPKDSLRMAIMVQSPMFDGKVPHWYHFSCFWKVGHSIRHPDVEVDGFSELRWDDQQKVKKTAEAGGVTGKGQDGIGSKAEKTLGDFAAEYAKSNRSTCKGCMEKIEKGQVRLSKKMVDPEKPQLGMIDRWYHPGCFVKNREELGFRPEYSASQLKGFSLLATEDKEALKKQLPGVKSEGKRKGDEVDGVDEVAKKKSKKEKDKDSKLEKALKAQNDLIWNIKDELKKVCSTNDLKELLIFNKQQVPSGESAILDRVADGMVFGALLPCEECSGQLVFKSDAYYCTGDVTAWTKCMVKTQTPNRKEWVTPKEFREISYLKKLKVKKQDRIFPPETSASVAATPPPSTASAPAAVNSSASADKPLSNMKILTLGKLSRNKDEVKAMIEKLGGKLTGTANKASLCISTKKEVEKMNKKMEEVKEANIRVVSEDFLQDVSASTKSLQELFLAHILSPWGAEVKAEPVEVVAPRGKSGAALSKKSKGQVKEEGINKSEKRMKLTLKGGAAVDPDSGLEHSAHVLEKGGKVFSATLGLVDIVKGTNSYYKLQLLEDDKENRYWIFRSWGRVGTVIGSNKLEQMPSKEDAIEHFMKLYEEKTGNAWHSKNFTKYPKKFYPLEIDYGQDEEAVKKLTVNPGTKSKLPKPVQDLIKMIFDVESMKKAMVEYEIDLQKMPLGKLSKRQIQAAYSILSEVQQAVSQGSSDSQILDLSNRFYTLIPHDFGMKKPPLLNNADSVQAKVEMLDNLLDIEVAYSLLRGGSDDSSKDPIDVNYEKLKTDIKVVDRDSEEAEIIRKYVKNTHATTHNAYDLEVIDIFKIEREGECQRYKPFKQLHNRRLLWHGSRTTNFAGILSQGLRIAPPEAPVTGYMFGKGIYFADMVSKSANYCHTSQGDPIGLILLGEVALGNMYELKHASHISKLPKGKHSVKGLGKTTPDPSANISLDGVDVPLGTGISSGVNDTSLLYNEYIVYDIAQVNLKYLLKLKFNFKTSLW

percent reduction of PLA association against WT FUS (Flag-FUS-R521H (human)): > 80%
Molecule: DNA Ligase IIIalpha (LigIII), endogenous (from UniProt P49916 43-1009) (enzyme)

catalytic efficiency of LigIII in the nick ligation reaction of XRCC1/LigIII with or without FUS [1]: 4 fold
in vitro DNA nick ligation by XRCC1/LigIII complex (100 f.moles) with FUS 10-500 f.moles; fold change in ligated product [1]: ~5 fold
binding result [2]: binds
B1: GST-FUS (natural protein, human, UniProt P35637 1-526, looked up)
chain: MASNDYTQQATQSYGAYPTQPGQGYSQQSSQPYGQQSYSGYSQSTDTSGYGQSSYSSYGQSQNTGYGTQSTPQGYGSTGGYGSSQSSQSSYGQQSSYPGYGQQPAPSSTSGSYGSSSQSSSYGQPQSGSYSQQPSYGGQQQSYGQQQSYNPPQGYGQQNQYNSSSGGGGGGGGGGNYGQDQSSMSSGGGSGGGYGNQDQSGGGGSGGYGQQDRGGRGRGGSGGGGGGGGGGYNRSSGGYEPRGRGGGRGGRGGMGGSDRGGFNKFGGPRDQGSRHDSEQDNSDNNTIFVQGLGENVTIESVADYFKQIGIIKTNKKTGQPMINLYTDRETGKLKGEATVSFDDPPSAKAAIDWFDGKEFSGNPIKVSFATRRADFNRGGGNGRGGRGRGGPMGRGGYGGGGSGGGGRGGFPSGGGGGGGQQRAGDWKCPNPTCENMNFSWRNECNQCKAPKPDGPGGGPGGSHMGGNYGDDRRGGRGGYDRGGYRGRGGDRGGFRGGRGGGDRGGFGPGKMDSRGEHRQDRRERPY
notes: FUS in pGEX6P-1, plasmid purchased from Addgene; The FUS of the ligation assays is named only 'purified FUS'; also called purified FUS; recombinant FUS; source: E. coli BL21, purified (glutathione-Sepharose 4B)
